For assay [1], the target named is humVEGF1-165 homodimer (recombinant full-length humanVEGF) (human) (UniProt P15692). Kind of assay: ELISA titer on coated humVEGF1-165, 5000 ng/mL. In general terms: ELISA stands for enzyme-linked immunosorbent assay.
The target in assay [2] is ratVEGF1-165 homodimer (recombinant full-length ratVEGF) (rat) (UniProt P16612). Kind of assay: ELISA on coated antigen.
Chain of ratVEGF1-165 homodimer (recombinant full-length ratVEGF) (rat) (P16612 27-165, form in doubt): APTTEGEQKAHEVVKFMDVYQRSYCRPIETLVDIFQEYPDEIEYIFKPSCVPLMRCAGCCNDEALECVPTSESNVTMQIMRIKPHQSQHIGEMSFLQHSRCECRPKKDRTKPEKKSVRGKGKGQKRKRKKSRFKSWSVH

Chain of humVEGF1-165 homodimer (recombinant full-length humanVEGF) (human) (P15692 other isoform, or with tags, fused parts or gaps): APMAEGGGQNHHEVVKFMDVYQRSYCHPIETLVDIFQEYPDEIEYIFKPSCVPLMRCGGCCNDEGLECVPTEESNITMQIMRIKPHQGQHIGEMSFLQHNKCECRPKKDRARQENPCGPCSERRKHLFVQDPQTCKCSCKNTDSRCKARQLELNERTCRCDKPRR

Take BioVision™ (control Ab) (antibody): in assay [1], the Titer (-10log dilution) was found to be 4.2.

On to Avastin™ (Bevacizumab) (antibody), for which, in assay [2], the ELISA signal at dilution 1/100 worked out at 236, the ELISA signal at dilution 1/300 came out at 148, the ELISA signal at dilution 1/1000 is 103 and the titer endblood is under 1000 ng/mL.

The record behind these values is US20120231000A1.
